Data as given in patent publication US20200407436A1 (published 2020).

Legend:
[1] = biological target: T1, mature human TGF-beta 3 (human, UniProt P10600 301-412); experiment: cell-based or functional assay
T1 sequence: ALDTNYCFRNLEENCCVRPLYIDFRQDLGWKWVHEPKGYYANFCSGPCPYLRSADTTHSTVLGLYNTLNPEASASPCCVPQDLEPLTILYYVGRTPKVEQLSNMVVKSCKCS

[2] = biological target: endogenously produced TGF-beta in the RPTEC and HRF co-culture system; experiment: cell-based or functional assay
[3] = biological target: T2, mature human TGF-beta 2 (human, UniProt P61812 303-414); experiment: cell-based or functional assay
T2 sequence: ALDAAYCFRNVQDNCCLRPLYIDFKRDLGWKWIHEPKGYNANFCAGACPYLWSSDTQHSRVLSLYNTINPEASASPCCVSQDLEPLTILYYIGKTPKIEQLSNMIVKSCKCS

[4] = biological target: mature human TGF-beta 1 (human, UniProt P01137 279-390); experiment: cell-based or functional assay
[5] = biological target: T3, full length TGF-beta 1 including the latency associated peptide (human, UniProt P01137 30-390); experiment: analytical gel filtration
T3 construct: also called latent TGF-beta 1; human Latency-associated Peptide and TGF-beta 1

[6] = biological target: T1, mature human TGF-beta 3; experiment: SPR Biacore T200, human TGF-beta amine-coupled (~20 RU), E. coli derived Fab as analyte; heterogeneous fit, component 1 (KD1; believed occluded)
Method: (§1) Human TGF-β isoforms 1, 2, and 3 (Peprotech) were immobilised on CMS Series S chip via amine coupling chemistry on Flowcell 2, 3 and 4 (respectively) to a level of approximately 20 RU. HBS-EP buffer (10 mM HEPES pH 7.4, 0.15 M NaCl, 3 mM EDTA, 0.05% Surfactant P20, GE Healthcare) was used as the running buffer. […] The surface was regenerated by 2×10 μL injection of 10 mM HCl at a flowrate of 10 uL/min.
(§2) Background subtraction binding curves were analysed using the T200 evaluation software (version 1.0; GE Healthcare) following standard procedures. Kinetic parameters were determined using heterogeneous fitting algorithm with RI=0), as described in Example 3, and the values are provided in Table 4.

[7] = biological target: T2, mature human TGF-beta 2; experiment: as above
Method: as §1, §2

mature human TGF-beta 1, sequence (P01137 279-390 limits assumed): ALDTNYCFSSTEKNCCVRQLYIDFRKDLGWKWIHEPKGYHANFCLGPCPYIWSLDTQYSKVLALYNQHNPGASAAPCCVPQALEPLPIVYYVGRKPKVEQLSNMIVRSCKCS
T3 sequence (P01137 30-390 limits assumed): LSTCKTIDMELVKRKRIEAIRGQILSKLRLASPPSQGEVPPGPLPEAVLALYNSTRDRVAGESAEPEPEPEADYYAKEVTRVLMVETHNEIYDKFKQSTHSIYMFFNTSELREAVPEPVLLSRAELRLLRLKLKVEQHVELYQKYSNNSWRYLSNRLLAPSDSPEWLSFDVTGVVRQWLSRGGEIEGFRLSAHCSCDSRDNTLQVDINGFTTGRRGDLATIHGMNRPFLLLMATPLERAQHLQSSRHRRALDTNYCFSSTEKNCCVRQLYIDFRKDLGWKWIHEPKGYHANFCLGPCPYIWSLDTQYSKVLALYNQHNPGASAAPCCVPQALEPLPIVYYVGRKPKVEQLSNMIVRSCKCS

B1: humanised antibody 4856 Fab graft gL3gH13 (Fab, V domains shown)
VH: EVQLVESGGGLVKPGGSLRLSCAASGFSLSSYDMSWVRQAPGKGLEWIGIIYGGSGSTWYASWAKGRFTISRDSAKNSVYLQMNSLRAEDTAVYYCARGRDAGAGGSRNGYSLWGQGTLVTVSS
VL: AYDMTQSPSTLSASVGDRVTITCQASESIYSGLAWYQQKPGKAPKLLIYAASDLASGVPSRFSGSGSGTEYTLTISSLQPDDFATYYCQQTWTDGGIDNPFGGGTKVEIKR
notes: Human gamma-1 CH1 (G1m17) and human C-kappa (K1m3); also called 4856gL3gH13
- Geo Mean IC50, Collagen I &III deposition, RPTEC mono-culture + TGFB3 [1]: 81.2 nM
- Geo Mean IC50, Collagen V deposition, RPTEC mono-culture + TGFB3 [1]: 191 nM
- Geo Mean IC50, Fibronectin deposition, RPTEC mono-culture + TGFB3 [1]: 82.1 nM
- IC50 (N = 1), Collagen I &III deposition, RPTEC mono-culture + TGFB3 [1]: 64.3 nM
- IC50 (N = 1), Collagen V deposition, RPTEC mono-culture + TGFB3 [1]: 141 nM
- IC50 (N = 1), Fibronectin deposition, RPTEC mono-culture + TGFB3 [1]: 51.5 nM
- IC50 (N = 2), Collagen I &III deposition, RPTEC mono-culture + TGFB3 [1]: 124 nM
- IC50 (N = 2), Collagen V deposition, RPTEC mono-culture + TGFB3 [1]: 336 nM
- IC50 (N = 2), Fibronectin deposition, RPTEC mono-culture + TGFB3 [1]: 140 nM
- IC50 (N = 3), Collagen I &III deposition, RPTEC mono-culture + TGFB3 [1]: 67.2 nM
- IC50 (N = 3), Collagen V deposition, RPTEC mono-culture + TGFB3 [1]: 147 nM
- IC50 (N = 3), Fibronectin deposition, RPTEC mono-culture + TGFB3 [1]: 76.8 nM
- Geo Mean IC50, Collagen I &III deposition, RPTEC and HRF co-culture [2]: 32.8 nM
- Geo Mean IC50, Collagen V deposition, RPTEC and HRF co-culture [2]: 56.3 nM
- Geo Mean IC50, Fibronectin deposition, RPTEC and HRF co-culture [2]: 29.7 nM
- IC50 (N = 1), Collagen I &III deposition, RPTEC and HRF co-culture [2]: 22.4 nM
- IC50 (N = 1), Collagen V deposition, RPTEC and HRF co-culture [2]: 38.9 nM
- IC50 (N = 1), Fibronectin deposition, RPTEC and HRF co-culture [2]: 32.6 nM
- IC50 (N = 2), Collagen I &III deposition, RPTEC and HRF co-culture [2]: 48 nM
- IC50 (N = 2), Collagen V deposition, RPTEC and HRF co-culture [2]: 81.6 nM
- IC50 (N = 2), Fibronectin deposition, RPTEC and HRF co-culture [2]: 27.1 nM
- Geo Mean IC50, Collagen I &III deposition, RPTEC mono-culture + TGFB2 [3]: 0.3 nM
- Geo Mean IC50, Collagen V deposition, RPTEC mono-culture + TGFB2 [3]: 3.1 nM
- Geo Mean IC50, Fibronectin deposition, RPTEC mono-culture + TGFB2 [3]: 0.3 nM
- IC50 (N = 1), Collagen I &III deposition, RPTEC mono-culture + TGFB2 [3]: < 2 nM
- IC50 (N = 1), Collagen V deposition, RPTEC mono-culture + TGFB2 [3]: 0.52 nM
- IC50 (N = 1), Fibronectin deposition, RPTEC mono-culture + TGFB2 [3]: 0.16 nM
- IC50 (N = 2), Collagen I &III deposition, RPTEC mono-culture + TGFB2 [3]: 0.6 nM
- IC50 (N = 2), Collagen V deposition, RPTEC mono-culture + TGFB2 [3]: 10.5 nM
- IC50 (N = 2), Fibronectin deposition, RPTEC mono-culture + TGFB2 [3]: 0.76 nM
- IC50 (N = 3), Collagen I &III deposition, RPTEC mono-culture + TGFB2 [3]: 0.13 nM
- IC50 (N = 3), Collagen V deposition, RPTEC mono-culture + TGFB2 [3]: 5.29 nM
- IC50 (N = 3), Fibronectin deposition, RPTEC mono-culture + TGFB2 [3]: 0.22 nM
- Geo Mean IC50, Collagen I &III deposition, RPTEC mono-culture + TGFB1 [4]: 11.2 nM
- Geo Mean IC50, Collagen V deposition, RPTEC mono-culture + TGFB1 [4]: 43.7 nM
- Geo Mean IC50, Fibronectin deposition, RPTEC mono-culture + TGFB1 [4]: 19.2 nM
- IC50 (N = 1), Collagen I &III deposition, RPTEC mono-culture + TGFB1 [4]: 5.1 nM
- IC50 (N = 1), Collagen V deposition, RPTEC mono-culture + TGFB1 [4]: 13.1 nM
- IC50 (N = 1), Fibronectin deposition, RPTEC mono-culture + TGFB1 [4]: 12.6 nM
- IC50 (N = 2), Collagen I &III deposition, RPTEC mono-culture + TGFB1 [4]: 13.8 nM
- IC50 (N = 2), Collagen V deposition, RPTEC mono-culture + TGFB1 [4]: 92.1 nM
- IC50 (N = 2), Fibronectin deposition, RPTEC mono-culture + TGFB1 [4]: 57.4 nM
- IC50 (N = 3), Collagen I &III deposition, RPTEC mono-culture + TGFB1 [4]: 19.8 nM
- IC50 (N = 3), Collagen V deposition, RPTEC mono-culture + TGFB1 [4]: 69.4 nM
- IC50 (N = 3), Fibronectin deposition, RPTEC mono-culture + TGFB1 [4]: 9.8 nM
- binding result [5]: no binding
- Kd [6]: 15.7 nM
- Kd [7]: 3.67 nM
